Results: the supplement of paper PMC5998384

Tested on: HeLa Kyoto
Experiment: thermal stability score vs G1/S (z-score of summed log2 fold changes over temperatures); higher = more thermally stable than in G1/S
[1] = cell cycle stage: early G1 (4.5 h after nocodazole release)
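Further: synchronized HeLa Kyoto cells, proteins quantified by TMT10plex mass spectrometry, three biological replicates, mitosis taken 0.5 h after nocodazole release, G1/S directly after double thymidine block.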

Row | Sequence | thermal stability score [1] | thermal stability score (cell cycle stage: mitosis)
1 | MGSQGSPVKSYDYLLKFLLVGDSDVGKGEILESLQDGAAESPYAYSNGIDYKTTTILLDGRRVKLELWDTSGQGRFCTIFRSYSRGAQGILLVYDITNRWSFDGIDRWIKEIDEHAPGVPRILVGNRLHLAFKRQVPTEQARAYAEKNCMTFFEVSPLCNFNVIESFTELSRIVLMRHGMEKIWRPNRVFSLQDLCCRAIVSCTPVHLIDKLPLPVTIKSHLKSFSMANGMNAVMMHGRSYSLASGAGGGGSKGNSLKRSKSIRPPQSPPQNCSRSNCKIS [RAB40C] | -0.589 | -0.612
2 | MAKVSVLNVAVLENPSPFHSPFRFEISFECSEALADDLEWKIIYVGSAESEEFDQILDSVLVGPVPAGRHMFVFQADAPNPSLIPETDAVGVTVVLITCTYHGQEFIRVGYYVNNEYLNPELRENPPMKPDFSQLQRNILASNPRVTRFHINWDNNMDRLEAIETQDPSLGCGLPLNCTPIKGLGLPGCIPGLLPENSMDCI [ASF1B] | -3.88 | -1.16
3 | MLRCGGRGLLLGLAVAAAAVMAARLMGWWGPRAGFRLFIPEELSRYRGGPGDPGLYLALLGRVYDVSSGRRHYEPGSHYSGFAGRDASRAFVTGDCSEAGLVDDVSDLSAAEMLTLHNWLSFYEKNYVCVGRVTGRFYGEDGLPTPALTQVEAAITRGLEANKLQLQEKQTFPPCNAEWSSARGSRLWCSQKSGGVSRDWIGVPRKLYKPGAKEPRCVCVRTTGPPSGQMPDNPPHRNRGDLDHPNLAEYTGCPPLAITCSFPL [CYB5D2] | 0.86 | -0.244
4 | MTGEKIRSLRRDHKPSKEEGDLLEPGDEEAAAALGGTFTRSRIGKGGKACHKIFSNHHHRLQLKAAPASSNPPGAPALPLHNSSVTANSQSPALLAGTNPVAVVADGGSCPAHYPVHECVFKGDVRRLSSLIRTHNIGQKDNHGNTPLHLAVMLGNKECAHLLLAHNAPVKVKNAQGWSPLAEAISYGDRQMITALLRKLKQQSRESVEEKRPRLLKALKELGDFYLELHWDFQSWVPLLSRILPSDACKIYKQGINIRLDTTLIDFTDMKCQRGDLSFIFNGDAAPSESFVVLDNEQKVYQRIHHEESEMETEEEVDILMSSDIYSATLSTKSISFTRAQTGWLFREDKTERVGNFLADFYLVNGLVLESRKRREHLSEEDILRNKAIMESLSKGGNIMEQNFEPIRRQSLTPPPQNTITWEEYISAENGKAPHLGRELVCKESKKTFKATIAMSQEFPLGIELLLNVLEVVAPFKHFNKLREFVQMKLPPGFPVKLDIPVFPTITATVTFQEFRYDEFDGSIFTIPDDYKEDPSRFPDL [ANKRD13C] | -0.894 | -0.663
5 | MGPEALSSLLLLLLVASGDADMKGHFDPAKCRYALGMQDRTIPDSDISASSSWSDSTAARHSRLESSDGDGAWCPAGSVFPKEEEYLQVDLQRLHLVALVGTQGRHAGGLGKEFSRSYRLRYSRDGRRWMGWKDRWGQEVISGNEDPEGVVLKDLGPPMVARLVRFYPRADRVMSVCLRVELYGCLWRDGLLSYTAPVGQTMYLSEAVYLNDSTYDGHTVGGLQYGGLGQLADGVVGLDDFRKSQELRVWPGYDYVGWSNHSFSSGYVEMEFEFDRLRAFQAMQVHCNNMHTLGARLPGGVECRFRRGPAMAWEGEPMRHNLGGNLGDPRARAVSVPLGGRVARFLQCRFLFAGPWLLFSEISFISDVVNNSSPALGGTFPPAPWWPPGPPPTNFSSLELEPRGQQPVAKAEGSPTAILIGCLVAIILLLLLIIALMLWRLHWRRLLSKAERRVLEEELTVHLSVPGDTILINNRPGPREPPPYQEPRPRGNPPHSAPCVPNGSALLLSNPAYRLLLATYARPPRGPGPPTPAWAKPTNTQAYSGDYMEPEKPGAPLLPPPPQNSVPHYAEADIVTLQGVTGGNTYAVPALPPGAVGDGPPRVDFPRSRLRFKEKLGEGQFGEVHLCEVDSPQDLVSLDFPLNVRKGHPLLVAVKILRPDATKNARNDFLKEVKIMSRLKDPNIIRLLGVCVQDDPLCMITDYMENGDLNQFLSAHQLEDKAAEGAPGDGQAAQGPTISYPMLLHVAAQIASGMRYLATLNFVHRDLATRNCLVGENFTIKIADFGMSRNLYAGDYYRVQGRAVLPIRWMAWECILMGKFTTASDVWAFGVTLWEVLMLCRAQPFGQLTDEQVIENAGEFFRDQGRQVYLSRPPACPQGLYELMLRCWSRESEQRPPFSQLHRFLAEDALNTV [DDR1] | 0.0856 | 0.38
6 | MWAFSELPMPLLINLIVSLLGFVATVTLIPAFRGHFIAARLCGQDLNKTSRQQIPESQGVISGAVFLIILFCFIPFPFLNCFVKEQCKAFPHHEFVALIGALLAICCMIFLGFADDVLNLRWRHKLLLPTAASLPLLMVYFTNFGNTTIVVPKPFRPILGLHLDLGILYYVYMGLLAVFCTNAINILAGINGLEAGQSLVISASIIVFNLVELEGDCRDDHVFSLYFMIPFFFTTLGLLYHNWYPSRVFVGDTFCYFAGMTFAVVGILGHFSKTMLLFFMPQVFNFLYSLPQLLHIIPCPRHRIPRLNIKTGKLEMSYSKFKTKSLSFLGTFILKVAESLQLVTVHQSETEDGEFTECNNMTLINLLLKVLGPIHERNLTLLLLLLQILGSAITFSIRYQLVRLFYDV [DPAGT1] | -0.912 | -2.08
7 | MRVLVGGGTGFIGTALTQLLNARGHEVTLVSRKPGPGRITWDELAASGLPSCDAAVNLAGENILNPLRRWNETFQKEVIGSRLETTQLLAKAITKAPQPPKAWVLVTGVAYYQPSLTAEYDEDSPGGDFDFFSNLVTKWEAAARLPGDSTRQVVVRSGVVLGRGGGAMGHMLLPFRLGLGGPIGSGHQFFPWIHIGDLAGILTHALEANHVHGVLNGVAPSSATNAEFAQTLGAALGRRAFIPLPSAVVQAVFGRQRAIMLLEGQKVIPQRTLATGYQYSFPELGAALKEIVA [SDR39U1] | -0.328 | -0.0339
8 | MLLLVTSLLLCELPHPAFLLIPEKSDLRTVAPASSLNVRFDSRTMNLSWDCQENTTFSKCFLTDKKNRVVEPRLSNNECSCTFREICLHEGVTFEVHVNTSQRGFQQKLLYPNSGREGTAAQNFSCFIYNADLMNCTWARGPTAPRDVQYFLYIRNSKRRREIRCPYYIQDSGTHVGCHLDNLSGLTSRNYFLVNGTSREIGIQFFDSLLDTKKIERFNPPSNVTVRCNTTHCLVRWKQPRTYQKLSYLDFQYQLDVHRKNTQPGTENLLINVSGDLENRYNFPSSEPRAKHSVKIRAADVRILNWSSWSEAIEFGSDDGNLGSVYIYVLLIVGTLVCGIVLGFLFKRFLRIQRLFPPVPQIKDKLNDNHEVEDEIIWEEFTPEEGKGYREEVLTVKEIT [CSF2RA] | -1.1 | -1.35
9 | MCFSFIMPPAMADILDIWAVDSQIASDGSIPVDFLLPTGIYIQLEVPREATISYIKQMLWKQVHNYPMFNLLMDIDSYMFACVNQTAVYEELEDETRRLCDVRPFLPVLKLVTRSCDPGEKLDSKIGVLIGKGLHEFDSLKDPEVNEFRRKMRKFSEEKILSLVGLSWMDWLKQTYPPEHEPSIPENLEDKLYGGKLIVAVHFENCQDVFSFQVSPNMNPIKVNELAIQKRLTIHGKEDEVSPYDYVLQVSGRVEYVFGDHPLIQFQYIRNCVMNRALPHFILVECCKIKKMYEQEMIAIEAAINRNSSNLPLPLPPKKTRIISHVWENNNPFQIVLVKGNKLNTEETVKVHVRAGLFHGTELLCKTIVSSEVSGKNDHIWNEPLEFDINICDLPRMARLCFAVYAVLDKVKTKKSTKTINPSKYQTIRKAGKVHYPVAWVNTMVFDFKGQLRTGDIILHSWSSFPDELEEMLNPMGTVQTNPYTENATALHVKFPENKKQPYYYPPFDKIIEKAAEIASSDSANVSSRGGKKFLPVLKEILDRDPLSQLCENEMDLIWTLRQDCREIFPQSLPKLLLSIKWNKLEDVAQLQALLQIWPKLPPREALELLDFNYPDQYVREYAVGCLRQMSDEELSQYLLQLVQVLKYEPFLDCALSRFLLERALGNRRIGQFLFWHLRSEVHIPAVSVQFGVILEAYCRGSVGHMKVLSKQVEALNKLKTLNSLIKLNAVKLNRAKGKEAMHTCLKQSAYREALSDLQSPLNPCVILSELYVEKCKYMDSKMKPLWLVYNNKVFGEDSVGVIFKNGDDLRQDMLTLQMLRLMDLLWKEAGLDLRMLPYGCLATGDRSGLIEVVSTSETIADIQLNSSNVAAAAAFNKDALLNWLKEYNSGDDLDRAIEEFTLSCAGYCVASYVLGIGDRHSDNIMVKKTGQLFHIDFGHILGNFKSKFGIKRERVPFILTYDFIHVIQQGKTGNTEKFGRFRQCCEDAYLILRRHGNLFITLFALMLTAGLPELTSVKDIQYLKDSLALGKSEEEALKQFKQKFDEALRESWTTKVNWMAHTVRKDYRS [PIK3CB] | 0.304 | 0.592
10 | MFPREKTWNISFAGCGFLGVYYVGVASCLREHAPFLVANATHIYGASAGALTATALVTGVCLGEAGAKFIEVSKEARKRFLGPLHPSFNLVKIIRSFLLKVLPADSHEHASGRLGISLTRVSDGENVIISHFNSKDELIQANVCSGFIPVYCGLIPPSLQGVRYVDGGISDNLPLYELKNTITVSPFSGESDICPQDSSTNIHELRVTNTSIQFNLRNLYRLSKALFPPEPLVLREMCKQGYRDGLRFLQRNGLLNRPNPLLALPPARPHGPEDKDQAVESAQAEDYSQLPGEDHILEHLPARLNEALLEACVEPTDLLTTLSNMLPVRLATAMMVPYTLPLESALSFTIRLLEWLPDVPEDIRWMKEQTGSICQYLVMRAKRKLGRHLPSRLPEQVELRRVQSLPSVPLSCAAYREALPGWMRNNLSLGDALAKWEECQRQLLLGLFCTNVAFPPEALRMRAPADPAPAPADPASPQHQLAGPAPLLSTPAPEARPVIGALGL [PNPLA2] | -0.911 | 1.32
11 | MEINTKLLISVTCISFFTFQLLFYFVSYWFSAKVSPGFNSLSFKKKIEWNSRVVSTCHSLVVGIFGLYIFLFDEATKADPLWGGPSLANVNIAIASGYLISDLSIIILYWKVIGDKFFIMHHCASLYAYYLVLKNGVLAYIGNFRLLAELSSPFVNQRWFFEALKYPKFSKAIVINGILMTVVFFIVRIASMLPHYGFMYSVYGTEPYIRLGVLIQLSWVISCVVLDVMNVMWMIKISKGCIKVISHIRQEKAKNSLQNGKLD [TMEM56] | 0.000211 | -0.867
12 | MARKALKLASWTSMALAASGIYFYSNKYLDPNDFGAVRVGRAVATTAVISYDYLTSLKSVPYGSEEYLQLRSKSWPVFLQVHLRSARRLCELCCANRGTFIKVGQHLGALDYLLPEEYTSTLKVLHSQAPQSSMQEIRQVIREDLGKEIHDLFQSFDDTPLGTASLAQVHKAVLHDGRTVAVKVQHPKVRAQSSKDILLMEVLVLAVKQLFPEFEFMWLVDEAKKNLPLELDFLNEGRNAEKVSQMLRHFDFLKVPRIHWDLSTERVLLMEFVDGGQVNDRDYMERNKIDVNEISRHLGKMYSEMIFVNGFVHCDPHPGNVLVRKHPGTGKAEIVLLDHGLYQMLTEEFRLNYCHLWQSLIWTDMKRVKEYSQRLGAGDLYPLFACMLTARSWDSVNRGISQAPVTATEDLEIRNNAANYLPQISHLLNHVPRQMLLILKTNDLLRGIEAALGTRASASSFLNMSRCCIRALAEHKKKNTCSFFRRTQISFSEAFNLWQINLHELILRVKGLKLADRVLALICWLFPAPL [ADCK1] | 0.277 | -0.197
